These results are taken from publication PMC12363175 (2025).

B1: goat ACE2 ectodomain fused with mFc (Fc fusion)
chain: QSTTEEQAKTFLEKFNHEAEDLSYQSSLASWNYNTNITDENVQKMNEARAKWSAFYEEQSRMARTYSLEEIQNLTLKRQLKALQHSGTSVLSAEKSKRLNTILNKMSTIYSTGKVLDPNTQECLALEPGLDDIMENSRDYNRRLWAWEGWRAEVGKQLRPLYEEYVVLENEMARANNYEDYGDYWRGDYEVTGAGDYDYSRDQLMKDVERTFAEIKPLYEQLHAYVRAKLMNTYPSYISPTGCLPAHLLGDMWGRFWTNLYSLTVPFEHKPSIDVTEKMKNQSWDAERIFKEAEKFFVSIGLPYMTQGFWNNSMLTEPGDGRKVVCHPTAWDLGKGDFRIKMCTKVTMDDFLTAHHEMGHIQYDMAYATQPYLLRNGANEGFHEAVGEIMSLSAATPHYLKALGLLAPDFYEDNETEINFLLKQALTIVGTLPFTYMLEKWRWMVFKGEIPKQQWMEKWWEMKREIVGVVEPLPHDETYCDPACLFHVAEDYSFIRYYTRTIYQFQFHEALCKTAKHEGALFKCDISNSTEAGQRLLQMLRLGKSEPWTLALENIVGIKTMDVKPLLNYFEPLFTWLKEQNRNSFVGWSTEWTPYSDQSIKVRISLKSALGENAYEWNDNEMYLFRSSVAYAMRKYFLEDRNETIPFGEENVWVSDKKPRISFKFFVTSPNNVSDIIPRTEVENAIRLCRDRINDAFQLDDNSLEFLGIQPTLRPPYEPP
B2: raccoon dog ACE2 ectodomain fused with mFc (Fc fusion)
chain: QSTEDLVNTFLEKFNYEAEELSYQSSLASWNYNTNITDENLQKMNNAGAKWSAFYEEQSKLAKTYPLEEIQDSTVKRQLRALQHSGSSVLSADKNQRLNTILNSMSTIYSTGKACNPSNPQECLLLEPGLDDIMENSKDYNERLWAWEGWRSEVGKQLRPLYEEYVALKNEMARANNYEDYGDYWRGDYEEEWENGYNYSRNQLIDDVEHTFTQIMPLYQHLHAYVRTKLMDTYPSYISPTGCLPAHLLGDMWGRFWTNLYPLTVPFGQKPNIDVTNAMVNQSWDARKIFKEAEKFFVSVGLPNMTQGFWENSMLTEPSDSWKVVCHPTAWDLGRGDFRIKMCTKVTMDDFLTAHHEMGHIQYDMAYAAQPFLLRNGANEGFHEAVGEIMSLSAATPNHLKNIGLLPPSFFEDSETEINFLLKQALTIVGTLPFTYMLEKWRWMVFKGEIPKDQWMKTWWEMKRNIVGVVEPVPHDETYCDPASLFHVANDYSFIRYYTRTIYQFQFQEALCQIAKHEGPLHKCDISNSSEAGQKLLEMLKLGKSKPWTYALEIVVGAKNMDVRPLLNYFEPLFTWLKEQNRNSFVGWNTDWSPYADQSIKVRISLKSALGEKAYEWNNNEMYLFRSSIAYAMRQYFSEVKNQTIPFVEDNVWVSDLKPRISFNFFVTSPGNVSDIIPRTEVEEAIRMYRSRINDVFRLDDNSLEFLGIQPTLGPPYEPPVT
B3: dog ACE2 ectodomain fused with mFc (Fc fusion)
chain: B2 chain with N8K, T34I, L41V, G308E, W322R, R335K
B4: fox ACE2 ectodomain fused with mFc (Fc fusion)
chain: B2 chain with N31D, T37S, L41V, W322R, R335K, Q635R, N642K, E684K, S691G
B5: rabbit ACE2 ectodomain fused with mFc (Fc fusion)
chain: QSTIEELAKTFLEKFNQEAEDLSYQSALASWDYNTNITEENVQKMNDAEAKWSAFYEEQSKLAKTYPSQEVQNLTVKRQLQALQQSGSSALSADKSKQLNTILSTMSTIYSTGKVCNQSNPQECFLLEPGLDEIMAKSTDYNERLWAWEGWRSVVGKQLRPLYEEYVVLKNEMARANNYEDYGDYWRADYEAEGADGYDYSRSQLIDDVERTFSEIKPLYEQLHAFVRTKLMDAYPSRISPTGCLPAHLLGDMWGRFWTNLYSLTVPFGQKPNIDVTDTMVNQGWDAERIFKEAEKFFVSVGLPSMTQGFWENSMLTEPGDGRKVVCHPTAWDLGKGDFRIKMCTKVTMDNFLTAHHEMGHIQYDMAYATQPFLLRNGANEGFHEAVGEIMSLSAATPEHLKSIGLLPYDFHEDNETEINFLLKQALTIVGTLPFTYMLEKWRWMVFKGEIPKEQWMQKWWEMKREIVGVVEPMPHDETYCDPAALFHVANDYSFIRYYTRTIYQFQFQEALCQAAQHEGPLHKCDISNSTEAGQKLLNMLRLGRSEPWTLALENVVGAKNMDVRPLLNYFEPLFTWLKEQNRNSFVGWSTEWTPYADQSIKVRISLKTALGDQAYEWNDSEMYLFRSSVAYAMRKYFSEVKNQTILFGEEDVRVSDLKPRISFNFFVTAPNNVNDIIPRNEVEEAISMSRSRINDIFRLDDNSLEFVGIQPTLEPPYESPVP
B6: pig ACE2 ectodomain fused with mFc (Fc fusion)
chain: QSTTEELAKTFLEKFNLEAEDLAYQSSLASWNYNTNITDENIQKMNDARAKWSAFYEEQSRIAKTYPLDEIQTLILKRQLQALQQSGTSGLSADKSKRLNTILNTMSTIYSSGKVLDPNNPQECLVLEPGLDEIMENSKDYSRRLWAWESWRAEVGKQLRPLYEEYVVLENEMARANNYEDYGDYWRGDYEVTGTGDYDYSRNQLMEDVERTFAEIKPLYEHLHAYVRAKLMDAYPSRISPTGCLPAHLLGDMWGRFWTNLYPLTVPFGEKPSIDVTEAMVNQSWDAIRIFEEAEKFFVSIGLPNMTQGFWNNSMLTEPGDGRKVVCHPTAWDLGKGDFRIKMCTKVTMDDFLTAHHEMGHIQYDMAYAIQPYLLRNGANEGFHEAVGEIMSLSAATPHYLKALGLLPPDFYEDSETEINFLLKQALTIVGTLPFTYMLEKWRWMVFKGEIPKEQWMQKWWEMKREIVGVVEPLPHDETYCDPACLFHVAEDYSFIRYYTRTIYQFQFHEALCRTAKHEGPLYKCDISNSTEAGQKLLQMLSLGKSEPWTLALENIVGVKTMDVKPLLSYFEPLLTWLKAQNGNSSVGWNTDWTPYADQSIKVRISLKSALGKEAYEWNDNEMYLFRSSIAYAMRNYFSSAKNETIPFGAEDVWVSDLKPRISFNFFVTSPANMSDIIPRSDVEKAISMSRSRINDAFRLDDNTLEFLGIQPTLGPPDEPP
B7: Chinese hamster ACE2 ectodomain fused with mFc (Fc fusion)
chain: QSIIEEQAKTFLDKFNQEAEDLSYQSALASWNYNTNITEENAQKMNEAAAKWSAFYEEQSKLAKNYSLQEVQNLIIKRQLQALQQSGSSALSADKNKQLNTILNTMSTIYSTGKVCNPKNPQECLLLEPGLDDIMATSTDYNERLWAWEGWRAEVGKQLRPLYEEYVVLKNEMARANNYKDYGDYWRGDYEAEGADGYNYNGNQLIEDVERTFKEIKPLYEQLHAYVRTKLMDTYPSFISPTGCLPAHLLGDMWGRFWTNLYPLTVPFGQKPNIDVTDAMVNQGWDAERIFKEAEKFFVSVGLPHMTQGFWGNSMLTDPGDDRKVVCHPTAWDLGKGDFRIKMCTKVTMDNFLTAHHEMGHIQYDMAYATQPFLLRNGANEGFHEAVGEIMSLSAATPKHLKSIGLLPSNFHEDNETEINFLLKQALTIVGTLPFTYMLEKWRWMVFKGDIPKEKWMEKWWEMKREIVGVVEPLPHDETYCDPAALFHVSNDYSFIRYYTRTIYQFQFQEALCQAAKHDGPLHKCDISNSTEAGQKLLNMLRLGKSEPWTLALENVVGARNMDVRPLLNYFEPLSVWLKEQNKNSFVGWNTDWSPYADQSIKVRISLKSALGENAYEWNDNEMYLFRATVAYAMRVYFAKNKTQTVLFGVEDIRVSDLKPRVSFNFFVTSPQNVSDIIPRNEVEEAVRFSRGRINDVFGLDDNSLEFLGINPTLAPPYQPPVT
B8: horse ACE2 ectodomain fused with mFc (Fc fusion)
chain: QSTTEDLAKTFLEKFNSEAEELSHQSSLASWSYNTNITDENVQKMNEAGARWSAFYEEQCKLAKTYPLEEIQNLTVKRQLQALQQSGSSVLSADKSKRLNEILNTMSTIYSTGKVCNPSNPQECLLLEPGLDAIMENSKDYNQRLWAWEGWRSEVGKQLRPLYEEYVVLKNEMARANNYEDYGDYWRGDYEAEGPSGYDYSRDQLIEDVERTFAEIKPLYEHLHAYVRAKLMDTYPSHINPTGCLPAHLLGDMWGRFWTNLYSLTVPFGQKPNIDVTDAMVDQSWDAKRIFEEAEKFFVSVGLPNMTQGFWENSMLTEPGDGRKVVCHPTAWDLGKGDFRIKMCTKVTMDDFLTAHHEMGHIQYDMAYAVQPYLLRNGANEGFHEAVGEIMSLSAATPNHLKAIGLLPPDFYEDSETEINFLLKQALTIVGTLPFTYMLEKWRWMVFKGEIPKEEWMKKWWEMKREIVGVVEPVPHDETYCDPAALFHVANDYSFIRYYTRTIYQFQFQEALCQTAKHEGPLHKCDISNSTEAGQKLLQMLSLGKSEPWTLALERIVGVKNMDVRPLLNYFEPLFTWLKDQNKNSFVGWSTNWSPYADQSIKVRISLKSALGEKSYEWNDNEMYLFQSSVAYAMRVYFLKAKNQTILFGEEDVWVSDLKPRISFNFFVTSPKNASDIIPRTDVEEAIRMSRSRINDAFRLDDNTLEFLGIQPTLGPPYQPPVT
B9: golden hamster ACE2 ectodomain fused with mFc (Fc fusion)
chain: QSIIEEQAKTFLDKFNQEAEDLSYQSALASWNYNTNITEENAQKMNEAAAKWSAFYEEQSKLAKNYSLQEVQNLTIKRQLQALQQSGSSALSADKNKQLNTILNTMSTIYSTGKVCNPKNPQECLLLEPGLDDIMATSTDYNERLWAWEGWRAEVGKQLRPLYEEYVVLKNEMARANNYEDYGDYWRGDYEAEGADGYNYNGNQLIEDVERTFKEIKPLYEQLHAYVRTKLMNTYPSYISPTGCLPAHLLGDMWGRFWTNLYPLTVPFGQKPNIDVTDAMVNQGWNAERIFKEAEKFFVSVGLPYMTQGFWENSMLTDPGDDRKVVCHPTAWDLGKGDFRIKMCTKVTMDNFLTAHHEMGHIQYDMAYATQPFLLRNGANEGFHEAVGEIMSLSAATPEHLKSIGLLPSDFQEDNETEINFLLKQALTIVGTLPFTYMLEKWRWMVFKGDIPKEQWMEKWWEMKREIVGVVEPLPHDETYCDPAALFHVSNDYSFIRYYTRTIYQFQFQEALCQAAKHDGPLHKCDISNSTEAGQKLLNMLRLGKSEPWTLALENVVGARNMDVRPLLNYFEPLSVWLKEQNKNSFVGWNTDWSPYADQSIKVRISLKSALGENAYEWDDNEMYLFRASVAYAMRVYFAKNKTQTVPFGVEDIRVSDLKPRVSFNFFVTSPQNVSDIIPRNEVEEAVRLSRGRINDVFGLDDNSLEFLGINPTLSPPYQPPVT

Residue numbers refer to the chain shown, from its start.

The target in this experiment is SARS-CoV-2 PT-RBD (SARS-CoV-2 prototype, UniProt P0DTC2). The experiment in a line: SPR. (In general: In SPR one partner is held on a chip, and binding of the other changes the refractive index at the surface.)
Usually Kd stands for the free concentration of one partner at which half of the binding sites on the other are occupied at equilibrium, for simple one-to-one binding. High values mean weaker binding, low ones tighter binding. The molecule B1 had a Kd of 451 nM. As for B2, the Kd turned out to be 424 nM. B3 yielded a Kd of 299 nM. Molecule B4 had a Kd of 59.2 nM. Turning to B5, the affinity, expressed as Kd, was 74.8 nM. This Kd and that of the molecule before are within 1.5-fold of each other. With B6 the figure was 175 nM; with B7, 69.4 nM; with B8, 64.4 nM. B9 displayed a Kd of 71.8 nM. This Kd and that of the molecule before are within 1.5-fold of each other.
